Assay results as given in US20100310640A1.

What was measured:
Conditions in all cases: remark: other sources report otherwise
[1] = target: T1, HLA-DR DRB1*0701 (human); experiment: radiolabeled-peptide inhibition, purified HLA-DR
T1 chain 1: not shown
T1 chain 2: not shown

[2] = target: T2, HLA-DR DRB1*0405 (human); experiment: radiolabeled-peptide inhibition, purified HLA-DR
T2 chain 1: not shown
T2 chain 2: not shown

[3] = target: T3, HLA-DR DRB1*0101 (human); experiment: radiolabeled-peptide inhibition, purified HLA-DR
T3 chain 1: not shown
T3 chain 2: not shown

[4] = target: T4, HLA-DR DRB5*0101 (human); experiment: radiolabeled-peptide inhibition, purified HLA-DR
T4 chain 1: not shown
T4 chain 2: not shown

[5] = target: T5, HLA-DR DRB1*0401 (human); experiment: radiolabeled-peptide inhibition, purified HLA-DR
T5 chain 1: not shown
T5 chain 2: not shown

[6] = target: T6, HLA-DR DRB1*0301 (human); experiment: radiolabeled-peptide inhibition, purified HLA-DR
T6 chain 1: not shown
T6 chain 2: not shown

[7] = target: T7, HLA-DR DRB1*0404 (human); experiment: radiolabeled-peptide inhibition, purified HLA-DR
T7 chain 1: not shown
T7 chain 2: not shown

[8] = target: T8, HLA-DR DRB4*0101 (human); experiment: radiolabeled-peptide inhibition, purified HLA-DR
T8 chain 1: not shown
T8 chain 2: not shown

[9] = target: T9, HLA-DR DRB1*1201 (human); experiment: radiolabeled-peptide inhibition, purified HLA-DR
T9 chain 1: not shown
T9 chain 2: not shown

[10] = target: T1, HLA-DR DRB1*0701 (human); experiment: radioligand competition, purified HLA-DR
[11] = target: T3, HLA-DR DRB1*0101 (human); experiment: radioligand competition, purified HLA-DR
[12] = target: T10, HLA-DR DRB1*1101 (human); experiment: radioligand competition, purified HLA-DR
T10 chain 1: not shown
T10 chain 2: not shown

[13] = target: T4, HLA-DR DRB5*0101 (human); experiment: radioligand competition, purified HLA-DR
[14] = target: T7, HLA-DR DRB1*0404 (human); experiment: radioligand competition, purified HLA-DR
[15] = target: T9, HLA-DR DRB1*1201 (human); experiment: radioligand competition, purified HLA-DR
[16] = target: T11, HLA-DR DRB1*1302 (human); experiment: radioligand competition, purified HLA-DR
T11 chain 1: not shown
T11 chain 2: not shown

[17] = target: T8, HLA-DR DRB4*0101 (human); experiment: radioligand competition, purified HLA-DR
[18] = target: T12, HLA-DR DRB1*0802 (human); experiment: radioligand competition, purified HLA-DR
T12 chain 1: not shown
T12 chain 2: not shown

[19] = target: T13, HLA-DR molecule DRB1*0405 (human); experiment: radioligand inhibition, purified HLA-DR
T13 chain 1: not shown
T13 chain 2: not shown

[20] = target: T14, HLA-DR molecule DRB1*0404 (human); experiment: radioligand inhibition, purified HLA-DR
T14 chain 1: not shown
T14 chain 2: not shown

[21] = target: T15, HLA-DR molecule DRB1*0701 (human); experiment: radioligand inhibition, purified HLA-DR
T15 chain 1: not shown
T15 chain 2: not shown

[22] = target: T16, HLA-DR molecule DRB1*0101 (human); experiment: radioligand inhibition, purified HLA-DR
T16 chain 1: not shown
T16 chain 2: not shown

[23] = target: T17, HLA-DR molecule DRB5*0101 (human); experiment: radioligand inhibition, purified HLA-DR
T17 chain 1: not shown
T17 chain 2: not shown

[24] = target: T3, HLA-DR DRB1*0101 (human); experiment: radioligand inhibition, purified HLA-DR
[25] = target: HLA-DR DRB3*0101 (human); experiment: radioligand inhibition, purified HLA-DR
[26] = target: T7, HLA-DR DRB1*0404 (human); experiment: radioligand inhibition, purified HLA-DR
[27] = target: T8, HLA-DR DRB4*0101 (human); experiment: radioligand inhibition, purified HLA-DR
[28] = target: T9, HLA-DR DRB1*1201 (human); experiment: radioligand inhibition, purified HLA-DR
[29] = target: T18, HLA-DR molecule DRB1*0802 (human); experiment: radioligand inhibition, purified HLA-DR
T18 chain 1: not shown
T18 chain 2: not shown

[30] = target: T19, HLA-DR molecule DRB1*0401 (human); experiment: radioligand inhibition, purified HLA-DR
T19 chain 1: not shown
T19 chain 2: not shown

[31] = target: T20, HLA-DR molecule DRB1*1201 (human); experiment: radioligand inhibition, purified HLA-DR
T20 chain 1: not shown
T20 chain 2: not shown

[32] = target: T21, HLA-DR molecule DRB1*1101 (human); experiment: radioligand inhibition, purified HLA-DR
T21 chain 1: not shown
T21 chain 2: not shown

[33] = target: T22, HLA-DR molecule DRB4*0101 (human); experiment: radioligand inhibition, purified HLA-DR
T22 chain 1: not shown
T22 chain 2: not shown

[34] = target: T23, HLA-DR molecule DRB1*1302 (human); experiment: radioligand inhibition, purified HLA-DR
T23 chain 1: not shown
T23 chain 2: not shown

[35] = target: T2, HLA-DR DRB1*0405 (human); experiment: radioligand competition, purified HLA-DR
[36] = target: T6, HLA-DR DRB1*0301 (human); experiment: radioligand competition, purified HLA-DR

CYGLGMEHLREVRAV [9019.0044] was tested, and the IC50 [1] was 271 nM, the IC50 [2] was 5120 nM and the IC50 [3] was 130 nM. For the same binder, the IC50 [4] was 3780 nM, the IC50 [5] was 1030 nM and the IC50 [6] was 265 nM. The IC50 [7] was 493 nM, the IC50 [8] was 444 nM and the IC50 [9] was 19000 nM.

In the case of LLTFWNPPTTAKLTI [CEA.24 (peptide 9019.0105)], the IC50 [10] is reported as 3.7 nM, the IC50 [11] is reported as 6.9 nM and the IC50 [12] is reported as 52 nM. The IC50 [13] was 13 nM, the IC50 [14] was 52 nM and the IC50 [15] was 5000 nM.

PPSMVAAGSVVAAVQ [Cyclin D1.199 (peptide 9019.0170)] gave an IC50 [16] of 55 nM, an IC50 [11] of 6.8 nM and an IC50 [17] of 91 nM. It also gave an IC50 [18] of 1400 nM.

In the case of ERGPLEHLYSLHIPN [Peptide 9019.0190 (IGFBP2.249)], the IC50 [19] is reported as 110 nM, the IC50 [20] is reported as 29 nM and the IC50 [21] is reported as 18 nM. The IC50 [22] was 7.7 nM and the IC50 [23] was 4000 nM.

Work on CHLFYNEQQEARGVH [Peptide 9019.0023] yielded an IC50 [24] of 2490 nM, an IC50 [25] of 18900 nM and an IC50 [26] of 3190 nM. For the same binder, the IC50 [27] was 5310 nM and the IC50 [28] was 1860 nM.

With LKSGMKELAVFREKV [Peptide 9019.0185 (IGFBP2.184)] the IC50 [19] was 34 nM and the IC50 [29] was 260 nM.

With HNQVRQVPLQRLRIV [Peptide 9019.0034 (Her2/neu.88)] the IC50 [30] was 840 nM, the IC50 [19] was 1300 nM and the IC50 [20] was 78 nM. For the same binder, the IC50 [31] was 42 nM, the IC50 [21] was 80 nM and the IC50 [32] was 21 nM. For the same binder, the IC50 [29] was 85 nM, the IC50 [33] was 18 nM and the IC50 [34] was 270 nM.

LREVRAVTSANIQEF [Peptide 9019.0046 (Her2/neu.350)] gave an IC50 [20] of 8.2 nM, an IC50 [22] of 17 nM and an IC50 [23] of 94 nM.

FYTLHVIKSDLVNEE [CEA.119 (peptide 9019.0114)] gave an IC50 [10] of 56 nM, an IC50 [35] of 41 nM and an IC50 [13] of 4500 nM. It also gave an IC50 [36] of 80 nM, an IC50 [14] of 169 nM and an IC50 [17] of 22 nM.

Binder TAKLTIESTPFNVAE [CEA.33 (peptide 9019.0106)] has an IC50 [16] of 35 nM, an IC50 [12] of 6000 nM and an IC50 [14] of 41 nM. For the same binder, the IC50 [17] was 53 nM.
